Assay results published in PMC2064084 (The Journal of Cell Biology, 2007).
Positions count from the first letter of the chain named. Numbers in names are those of the source.

B1: E442Q Spastin (enzyme)
chain: ESGAVPKRKDPLTHTSNSLPRSKTVMKTGSAGLSGHHRAPSYSGLSMVSGVKQGSGPAPTTHKGTPKTNRTNKPSTPTTATRKKKDLKNFRNVDSNLANLIMNEIVDNGTAVKFDDIAGQDLAKQALQEIVILPSLRPELFTGLRAPARGLLLFGPPGNGKTMLAKAVAAESNATFFNISAASLTSKYVGEGEKLVRALFAVARELQPSIIFIDQVDSLLCERREGEHDASRRLKTEFLIEFDGVQSAGDDRVLVMGATNRPQELDEAVLRRFIKRVYVSLPNEETRLLLLKNLLCKQGSPLTQKELAQLARMTDGYSGSDLTALAKDAALGPIRELKPEQVKNMSASEMRNIRLSDFTESLKKIKRSVSPQTLEAYIRWNKDFGDTTV
B2: R451G/E442Q Spastin (enzyme)
chain: B1 chain with R224G
B3: A457E/E442Q Spastin (enzyme)
chain: B1 chain with A230E
B4: GST–tubulin tail (GST fused to the C-terminal 104 amino acids of murine α-tubulin), ending in Tyr (domain or fragment)
chain: not shown

Experiments:
AUC = target: the molecule itself; assay: AUC
SEC = target: the molecule itself; assay: SEC
C448Y/E442Q Spastin = target: T1, C448Y/E442Q Spastin (human, UniProt Q9UBP0 228-616, E442Q | C448Y); assay: pull-down
T1 sequence: B1 chain with C221Y

| Binder | binding result (SEC) | further results |
| --- | --- | --- |
| B1 |  | stoichiometry N (AUC): 6 |
| B2 | binds |  |
| B3 | binds |  |
| B4 |  | binding result (C448Y/E442Q Spastin): binds |
